Measurements as given in patent US20260176254A1, “INHIBITORS OF PROSTATE SPECIFIC MEMBRANE ANTIGEN AND USE THEREOF” (SHANGHAI SINOTAU BIOTECH. CO., LTD, priority 2023, published 2026).

Experiments:
[1] = Tissue biodistribution in 22Rv1 tumor mouse model; design: species or system mice; details: male, nude, in vivo, iv, total radioactivity
Text: LnCAP and 22RV1 CDX xenograft tumor models were generated by inoculating 5×10^6 cells/site subcutaneously in male SCID or nude mice (Vital River), respectively. Animals were housed according to IACUC guidance and had accessed to food and water ad libitium. Animals were used for biodistribution study when the tumor dimensions reached around 0.2-0.3 cm^3. […] At each tome point, animals were sacrificed and tissues were collected, weighted, and subjected to radioactivity measurements using gamma counter. Radioactivity in the tissues was presented in % ID/g (percent of injected dose per gram).

[2] = molecular target: T1, recombinant human PSMA (rhPSMA) (Homo sapiens, UniProt Q04609); test: Naaladase assay (fluorescence-based Naaladase activity inhibition); format: biochemical; details: rhPSMA 0.4 μg/mL, substrate N-Acetyl-Asp-Glu 40 μM, 37° C. one hour
T1 construct: purchased Sino Biological
Experimental: Naaladase activity inhibition was determined using a fluorescence-based assay. Briefly, the solution containing the substrate N-Acetyl-Asp-Glu (Sigma-Aldrich) at 40 μM and the compound at concentrations from 0.15 nM to 1000 nM was mixed at equal volume with recombinant human PSMA (rhPSMA, Sino Biological) at 0.4 μg/mL, in assay buffer (50 mM HEPES, 100 mM NaCl, pH 7.5). The enzymatic reaction was proceeded by incubation at 37° C. for one hour and then stopped by heating at 95° C. for 5 minutes. A solution of 15 mM ortho-phthaldialdehyde (Sigma-Aldrich) was added to all vials and incubated for 10 min at ambient temperature. The reaction solutions were loaded onto a 96-well flat clear bottom black microplates (Corning) and read at excitation and emission wavelengths of 330 and 450 nm, respectively, using a microplate reader (Tecan). The data were analyzed by a one-site total binding regression algorithm of GraphPad Prism (GraphPad Software).

[3] = Tissue biodistribution: Salivary Gland

T1 sequence (Q04609 whole entry): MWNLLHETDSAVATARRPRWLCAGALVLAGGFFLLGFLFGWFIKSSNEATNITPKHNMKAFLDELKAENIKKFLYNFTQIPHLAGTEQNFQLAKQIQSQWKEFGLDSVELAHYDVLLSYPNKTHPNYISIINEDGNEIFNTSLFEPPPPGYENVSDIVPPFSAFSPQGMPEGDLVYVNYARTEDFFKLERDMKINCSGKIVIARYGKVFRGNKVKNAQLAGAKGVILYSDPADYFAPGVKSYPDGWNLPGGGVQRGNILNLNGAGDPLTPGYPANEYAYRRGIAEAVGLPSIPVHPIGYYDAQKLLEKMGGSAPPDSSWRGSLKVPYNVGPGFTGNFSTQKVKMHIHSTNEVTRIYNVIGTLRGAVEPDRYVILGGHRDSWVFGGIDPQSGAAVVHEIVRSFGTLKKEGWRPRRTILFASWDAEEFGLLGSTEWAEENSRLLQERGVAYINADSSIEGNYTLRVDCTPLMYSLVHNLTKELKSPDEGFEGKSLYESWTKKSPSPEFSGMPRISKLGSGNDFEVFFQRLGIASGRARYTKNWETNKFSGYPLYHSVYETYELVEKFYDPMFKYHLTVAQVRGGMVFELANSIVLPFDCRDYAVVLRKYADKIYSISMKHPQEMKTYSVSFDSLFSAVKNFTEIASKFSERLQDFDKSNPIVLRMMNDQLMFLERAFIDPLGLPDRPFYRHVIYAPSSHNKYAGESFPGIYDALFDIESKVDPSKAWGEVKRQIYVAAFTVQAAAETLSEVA

O=C(O)CCC[C@H](NC(=O)N[C@@H](CCCCNC(=O)[C@H](Cc1c2ccccc2cc2ccccc12)Nc1c(NC23CCC(c4nnc(CN5CCN(CC(=O)O)CCN(CC(=O)O)CCN(CC(=O)O)CC5)o4)(CC2)CC3)c(=O)c1=O)C(=O)O)C(=O)O [[^177Lu]Lu-E7, metal not drawn]
tissue uptake dose at 2 h [1]: 5.17 ± 0.12 %ID | tissue uptake dose at 6 h [1]: 1.71 ± 0.03 %ID | tissue uptake dose at 24 h [1]: 1.36 ± 0.04 %ID | tissue uptake dose at 72 h [1]: 1.29 ± 0.06 %ID | tissue uptake dose at 168 h [1]: 0.23 ± 0.02 %ID | tissue uptake at 2 h ([1]; Tissue biodistribution: Blood): 0.23 ± 0.05 %ID/g | tissue uptake at 6 h ([1]; Tissue biodistribution: Blood): 0.04 %ID/g | tissue uptake at 24 h ([1]; Tissue biodistribution: Blood): 0.02 %ID/g | tissue uptake at 72 h ([1]; Tissue biodistribution: Blood): 0.02 %ID/g | tissue uptake at 168 h ([1]; Tissue biodistribution: Blood): 0.02 ± 0.01 %ID/g | tissue uptake at 2 h ([1]; Tissue biodistribution: Bone): 0.3 ± 0.02 %ID/g | tissue uptake at 6 h ([1]; Tissue biodistribution: Bone): 0.28 ± 0.05 %ID/g | tissue uptake at 24 h ([1]; Tissue biodistribution: Bone): 0.26 ± 0.03 %ID/g | tissue uptake at 72 h ([1]; Tissue biodistribution: Bone): 0.26 ± 0.06 %ID/g | tissue uptake at 168 h ([1]; Tissue biodistribution: Bone): 0.29 ± 0.1 %ID/g | tissue uptake at 2 h ([1]; Tissue biodistribution: Heart): 0.15 ± 0.02 %ID/g | tissue uptake at 6 h ([1]; Tissue biodistribution: Heart): 0.06 ± 0.01 %ID/g | tissue uptake at 24 h ([1]; Tissue biodistribution: Heart): 0.05 %ID/g | tissue uptake at 72 h ([1]; Tissue biodistribution: Heart): 0.05 ± 0.01 %ID/g | tissue uptake at 168 h ([1]; Tissue biodistribution: Heart): 0.07 ± 0.01 %ID/g | tissue uptake at 2 h ([1]; Tissue biodistribution: Kidney): 15.2 ± 5.3 %ID/g | tissue uptake at 6 h ([1]; Tissue biodistribution: Kidney): 8.27 ± 2.15 %ID/g | tissue uptake at 24 h ([1]; Tissue biodistribution: Kidney): 6.73 ± 0.66 %ID/g | tissue uptake at 72 h ([1]; Tissue biodistribution: Kidney): 2.88 ± 1.02 %ID/g | tissue uptake at 168 h ([1]; Tissue biodistribution: Kidney): 0.95 ± 0.16 %ID/g | tissue uptake at 2 h ([1]; Tissue biodistribution: Liver): 0.18 ± 0.02 %ID/g | tissue uptake at 6 h ([1]; Tissue biodistribution: Liver): 0.11 ± 0.01 %ID/g | tissue uptake at 24 h ([1]; Tissue biodistribution: Liver): 0.11 ± 0.01 %ID/g | tissue uptake at 72 h ([1]; Tissue biodistribution: Liver): 0.12 ± 0.02 %ID/g | tissue uptake at 168 h ([1]; Tissue biodistribution: Liver): 0.11 ± 0.02 %ID/g | tissue uptake at 2 h ([1]; Tissue biodistribution: Lung): 0.41 ± 0.08 %ID/g | tissue uptake at 6 h ([1]; Tissue biodistribution: Lung): 0.12 ± 0.02 %ID/g | tissue uptake at 24 h ([1]; Tissue biodistribution: Lung): 0.1 %ID/g | tissue uptake at 72 h ([1]; Tissue biodistribution: Lung): 0.07 ± 0.01 %ID/g | tissue uptake at 168 h ([1]; Tissue biodistribution: Lung): 0.06 ± 0.01 %ID/g | tissue uptake at 2 h ([1]; Tissue biodistribution: Muscle): 0.1 ± 0.02 %ID/g | tissue uptake at 6 h ([1]; Tissue biodistribution: Muscle): 0.04 ± 0.02 %ID/g | tissue uptake at 24 h ([1]; Tissue biodistribution: Muscle): 0.02 %ID/g | tissue uptake at 72 h ([1]; Tissue biodistribution: Muscle): 0.02 %ID/g | tissue uptake at 168 h ([1]; Tissue biodistribution: Muscle): 0.02 %ID/g | tissue uptake at 2 h [1, 3]: 0.16 ± 0.01 %ID/g | tissue uptake at 6 h [1, 3]: 0.07 ± 0.01 %ID/g | tissue uptake at 24 h [1, 3]: 0.08 %ID/g | tissue uptake at 72 h [1, 3]: 0.06 ± 0.01 %ID/g | tissue uptake at 168 h [1, 3]: 0.06 ± 0.02 %ID/g | tissue uptake at 2 h ([1]; Tissue biodistribution: Spleen): 0.29 ± 0.03 %ID/g | tissue uptake at 6 h ([1]; Tissue biodistribution: Spleen): 0.12 ± 0.03 %ID/g | tissue uptake at 24 h ([1]; Tissue biodistribution: Spleen): 0.13 %ID/g | tissue uptake at 72 h ([1]; Tissue biodistribution: Spleen): 0.12 ± 0.01 %ID/g | tissue uptake at 168 h ([1]; Tissue biodistribution: Spleen): 0.15 ± 0.02 %ID/g | tissue uptake at 2 h ([1]; Tissue biodistribution: Tumor): 15.6 ± 4.67 %ID/g | tissue uptake at 6 h ([1]; Tissue biodistribution: Tumor): 15.6 ± 2.01 %ID/g | tissue uptake at 24 h ([1]; Tissue biodistribution: Tumor): 17.9 ± 0.87 %ID/g | tissue uptake at 72 h ([1]; Tissue biodistribution: Tumor): 12.1 ± 1.94 %ID/g | tissue uptake at 168 h ([1]; Tissue biodistribution: Tumor): 4.04 ± 0.66 %ID/g | tissue to tissue ratio at 2 h ([1]; Tumor/Blood): 70.2 ± 30 | tissue to tissue ratio at 6 h ([1]; Tumor/Blood): 425 ± 28 | tissue to tissue ratio at 24 h ([1]; Tumor/Blood): 848 ± 107 | tissue to tissue ratio at 72 h ([1]; Tumor/Blood): 737 ± 174 | tissue to tissue ratio at 168 h ([1]; Tumor/Blood): 345 ± 220 | tissue to tissue ratio at 2 h ([1]; Tumor/Bone): 52.9 ± 18.6 | tissue to tissue ratio at 6 h ([1]; Tumor/Bone): 57.4 ± 17.9 | tissue to tissue ratio at 24 h ([1]; Tumor/Bone): 70 ± 5.18 | tissue to tissue ratio at 72 h ([1]; Tumor/Bone): 47.8 ± 16.4 | tissue to tissue ratio at 168 h ([1]; Tumor/Bone): 15.6 ± 6.16 | tissue to tissue ratio at 2 h ([1]; Tumor/Kidney): 1.05 ± 0.32 | tissue to tissue ratio at 6 h ([1]; Tumor/Kidney): 1.99 ± 0.69 | tissue to tissue ratio at 24 h ([1]; Tumor/Kidney): 2.67 ± 0.15 | tissue to tissue ratio at 72 h ([1]; Tumor/Kidney): 4.48 ± 1.26 | tissue to tissue ratio at 168 h ([1]; Tumor/Kidney): 4.23 ± 0.07

O=C(O)CC[C@H](NC(=O)N[C@@H](CCCCNC(=O)[C@H](Cc1ccc2ccccc2c1)Nc1c(NC23CCC(c4nnc(CN5CCN(CC(=O)O)CCN(CC(=O)O)CCN(CC(=O)O)CC5)o4)(CC2)CC3)c(=O)c1=O)C(=O)O)C(=O)O [E28]
IC50 [2]: 2.1 nM

O=C(O)CCC[C@H](NC(=O)N[C@@H](CCCCNC(=O)[C@H](Cc1c2ccccc2cc2ccccc12)Nc1c(N[C@H]2CC[C@H](c3nnc(CN4CCN(CC(=O)O)CCN(CC(=O)O)CCN(CC(=O)O)CC4)o3)CC2)c(=O)c1=O)C(=O)O)C(=O)O [E11]
IC50 [2]: 10 nM
